Data from US20240115742A1, “FLUORINATED FIBERS FOR MULTIMODAL 1H AND 19F MRI, ULTRASOUND, FLUORESCENCE DETECTION AND CONFORMATIONAL AND TEMPERATURE DETECTION BY 19F MRS” (New York University, priority 2022, published 2024).
Several values for one entry are separate records, joined by “and”; a condition that tells them apart may be missing. Equal values may be shown once.

Assays:
TEM of protein fibers = format: physicochemical; conditions: fibers
Method: (§1) Transmission Electron Microscopy. Transmission electron microscopy (TEM) images were taken with a FEI Talos L120C transmission electron microscope. Protein fiber samples were diluted to 50 μM and 3 μL was spotted on Formvar/carbon-coated copper grids followed by 5 μL wash with water, and 3 μL staining with 1% v/v uranyl acetate solution each with incubation times of 1 min at RT. Fibrils were sized in ImageJ software (Version 1.52q).
as §1, with “Samples” for “Protein fiber samples”, “by a” for “by”, “min. Between steps, filter paper was used to wick the grids. Following imaging, fibrils” for “min at RT. Fibrils”

[1] = Tube inversion concentration-temperature phase diagram; format: physicochemical; conditions: for solubility limit: 50 mM Tris, 500 mM NaCl, pH 8.0; for UCST: at solubility limit, extent of gelation η 0.5
Method: Tube Inversion Test. Immediately after concentration to 2 mM, the protein was incubated at 4° C. over the course of two weeks after aliquoting 150 μL into a 2 mL Eppendorf tube. The samples were visually assessed for gelation by inverting the tubes at 12-hour time intervals thereafter, with gelled samples not flowing upon inversion.
Gelation. To study the relative gelation of Q2 as compared to the previously reported coiled-coil hydrogel, Q, protein was successfully expressed (FIG. 24), purified (FIG. 25), and concentrated to 2 mM (1% w/v) in Tris buffer (50 mM Tris, 500 mM NaCl) at pH 8.0. Purity of the protein was measured to be >99% by SDS-PAGE (FIG. 26) and concentration was measured by BCA assay. Immediately following concentration, the gelation process of Q2 was studied using the microrheology assay described previously following incubation at 4° C. Separately, 150 μL samples were aliquoted for tube inversion tests performed after 2 weeks of incubation for visual assessment of gelation over time at 4° C. (FIG. 19a-d) and at concentrations from 1 mM to 3.5 mM with temperatures 5° C. to 25° C. using 0.5 mM and 5° C. step sizes, respectively, to create a matrix-based phase diagram (FIG. 19e). Temperature and concentration ranges were selected based on preliminary tube-inversion testing at high and low ends of the ranges.
Thermoresponsiveness and material strength. UCST behavior of protein hydrogels was assessed by testing […] samples via tube inversion in 2 mL microtubes after incubation for two weeks at various temperatures and concentrations. Temperature conditions were modulated in the range of 5-40° C. The concentration range was modified depending on if precipitation was visually noticeable in the microtube at an earlier concentration, indicating a solubility limit to our phase diagram, as has been done previously. […] As done with Q2, the UCST of the hydrogels was determined using a bivariate linear relationship for the extent of gelation where tubes that passed gelation by tube inversion were assigned a value of 1 (shown in black in FIG. 52a and FIG. 64a-d) and tubes that failed gelation by tube inversion (shown in red in FIG. 52a and FIG. 64a-d) were assigned a value of 0. The heatmap in FIG. 52a and FIG. 64a-d was used to denote the range of extent of gelation where the equation was employed to solve for the UCST using the solubility limit and solving for an extent of gelation, η, value of 0.5. The UCSTs (FIG. 52b) for the hydrogels studied here were 13.0° C., 35.9° C., 33.6° C., 17.5° C., and 22.9° C. for Q3-7, respectively, as compared to 17.0° C. for Q and 22.0° C. for Q2 found previously. Bivariate regression allowed for solving the coefficients for the dependence of temperature and concentration on gelation.
Tube Inversion. Binary sol-gel behavior was assessed using tube inversion. Immediately after concentration to 2 mM, 150 μL of Q hydrogel variants were incubated in 2 mL microtubes at 4° C. for two weeks. Gelation was visually observed by inverting the microtube and inspecting the sample for flow from the top of tube.

[2] = TEM of hydrogel nanofibers; format: physicochemical; conditions: gel after incubation at 4 °C
Method: as §1, with “The supramolecular assembly of Q2 and Q were monitored over the course of 60 and 144 hours, respectively (in correspondence with tube inversion and microrheology). TEM images were taken of the gel at times consistent with when microrheological measurements for Q2 for consistent fibril sizing. Samples” for “Protein fiber samples”, “min. Following imaging, fibrils” for “min at RT. Fibrils”
as §1, with “Samples” for “Protein fiber samples”, “[…]” for “5 μL”, “min. Between steps, filter paper was used to gently wick the grids dry. Following imaging, minimum diameter nanofibers within the physically crosslinked hydrogel” for “min at RT. Fibrils”

[3] = Fluorescence recovery after photobleaching (FRAP); conditions: one-phase association fit
Method: Protein fibrils are capable of blue autofluorescence as a result of protein self-assembly. Fluorescent recovery after photobleaching (FRAP) is measured by photobleaching using a 405 nm laser and measuring the spot intensity over time. This behavior was previously confirmed in the Q protein in a recent characterization. Using the correlation between autofluorescence and fibrilization, the relative autofluorescence of the coiled-coil protein hydrogels was measured. […] To assess the relative laser response, hydrogels were subjected to FRAP imaging using two 100% intensity bleaches at 405 nm excitation followed by imaging at 2 second frame intervals (FIG. 53c).
Confocal Imaging and Fluorescence Recovery After Photobleaching (FRAP). FRAP experiments were performed with a Stellaris 8 Falcon laser scanning confocal microscope on an inverted DMi8 CS stand equipped with 63X NA 1.4 lens. Images were taken with a laser at 405 nm excitation. A pre-bleach image was taken followed by two bleach images using 100% laser intensity for 1.5 s. Following, 41 images were taken post-bleach at 2 s intervals. To measure recovery, FIJI (version 2.3.0) was used to automate background and recovery imaging following photobleaching. Independent background intensities were fit to a one-phase decay equation in GraphPad Prism. Background loss, as a result of photobleaching, from fit values were added to spot intensity values before being fit to a one-phase association equation in GraphPad Prism.

Parallel plate rheology = format: physicochemical; conditions: 10 Hz, 5% strain
Method: Rheology. Mechanical integrity of the Q2 hydrogel was assessed using a stress-controlled rheometer (Discovery Hybrid Rheometer 2, TA Instruments) equipped with a parallel plate geometry. After complete gelation of a 2 mM sample at 4° C., the sample was loaded onto the 8 mm diameter lower and upper plates with a 0.2 mm geometry gap. Strain and frequency settings were informed from previous Q hydrogel studies where the storage modulus (G′) and loss modulus (G″) were measured over the frequency range 0.1-10 Hz with a 5% oscillation strain.
Rheology. Q hydrogel variants were assessed for relative mechanical integrity with a stress-controlled rheometer (Discovery Hybrid Rheometer 2, TA Instruments) equipped with a parallel plate geometry. In parallel with microrheology measurements, 100 μL of each variant was incubated at 4° C. Upon gelation as assessed by microrheology, hydrogels were loaded onto an 8 mm diameter lower and upper plate with a 0.2 mm geometry gap. Storage modulus (G′) and loss modulus (G″) were measured from 0.1-10 Hz with 5% oscillation strain.

| Substance | fiber diameter, largest population of sizes (TEM of protein fibers) [nm] | average protein fiber diameter (TEM) (TEM of protein fibers; 50 mM NaH2PO4 pH 4.0) [nm] | solubility limit [1] [µM] | UCST [1] [°C] | hydrogel fibril diameter (TEM) [2] [nm] | Halftime [3] [s] | K [3] [s⁻¹] | Tau [3] [s] | loss modulus G″ (Parallel plate rheology) | storage modulus G′ (Parallel plate rheology) |
| --- | --- | --- | --- | --- | --- | --- | --- | --- | --- | --- |
| Q9: Monte-Carlo output sequence with increased ΔEEbcf from the Q domain; probably SEQ ID NO: 18 (MRGSHHHHHHGSIEGRVKEIKFLKNTAPQQLRELQNTNMALQDVRELLQQQSTL) [Protein Q9] | 1280±330 | 760±170 |  |  |  |  |  |  |  |  |
| Q7: Q hydrogel variant from trimodal Monte Carlo search, SEQ ID NO: 16 (MRGSHHHHHHGSIEGRVKEMTFIKKTIEQQAEEMKEINKAIHDIRHALENISKK) [Protein Q7] |  |  | 3000 | 22.9 | 36.3±10.8 | 9.7 | 0.1 | 13.9 | 21±8 Pa and 20.6 ± 7.9 Pa | 298±62 Pa and 297.5 ± 61.7 Pa |
| Q6: Q hydrogel variant from trimodal Monte Carlo search, SEQ ID NO: 15 (MRGSHHHHHHGSIEGRVKEITFIKKQIEQIAEEMKEINKAIHDIRHALENISKK) [Protein Q6] |  |  | 3000 | 17.5 | 39.9±16.9 | 5.1 | 0.1 | 7.3 | 13±6 Pa and 13.0 ± 5.7 Pa | 253±123 Pa and 252.9 ± 122.7 Pa |
| Q4: Q hydrogel variant from Rosetta Monte Carlo search, SEQ ID NO: 13 (MRGSHHHHHHGSIEGRVKEITFIKKTIEQIAEEMKEINKAIHDIRHALENISKK) [Protein Q4] |  |  | 4000 | 35.9 | 27.2±8.7 | 5.7 | 0.1 | 8.2 | 15.0 ± 3.2 Pa | 70±20 Pa and 69.9 ± 19.7 Pa |
